Square brackets hold non-standard residues; d marks the D form.
Tests used:
Aβ42 = Aβ42 (UniProt P05067 672-713); assay: cell-based or functional assay
[1] = target: T1, islet amyloid polypeptide (IAPP) (UniProt P10997 34-70, limits assumed); assay: cell-based or functional assay
T1 peptide (looked up): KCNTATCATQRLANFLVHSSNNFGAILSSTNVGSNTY

Sequence of Aβ42 (P05067 672-713 limits assumed): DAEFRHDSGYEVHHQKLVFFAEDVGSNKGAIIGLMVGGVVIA

B1: AP090 (peptide)
peptide: Ac-RGE[dM]N[dL]S[dW]MNEYSGW[dT]M[dN]L[dK]MGR-NH2
SMILES: CSCC[C@H](NC(=O)[C@@H](CCCCN)NC(=O)[C@H](CC(C)C)NC(=O)[C@@H](CC(N)=O)NC(=O)[C@H](CCSC)NC(=O)[C@H](NC(=O)[C@H](Cc1c[nH]c2ccccc12)NC(=O)CNC(=O)[C@H](CO)NC(=O)[C@H](Cc1ccc(O)cc1)NC(=O)[C@H](CCC(=O)O)NC(=O)[C@H](CC(N)=O)NC(=O)[C@H](CCSC)NC(=O)[C@@H](Cc1c[nH]c2ccccc12)NC(=O)[C@H](CO)NC(=O)[C@@H](CC(C)C)NC(=O)[C@H](CC(N)=O)NC(=O)[C@@H](CCSC)NC(=O)[C@H](CCC(=O)O)NC(=O)CNC(=O)[C@H](CCCNC(=N)N)NC(C)=O)[C@H](C)O)C(=O)NCC(=O)N[C@@H](CCCNC(=N)N)C(N)=O
- % inhibition of fibril formation (ThT), AP:Aβ42 1:1 (Aβ42): 69.7%
- % inhibition of fibril formation (ThT), AP:Aβ42 1:10 (Aβ42): 0%
- % inhibition of IAPP amyloid formation, Ratio AP:IAPP 1:1 [1]: 40%
- % inhibition of IAPP amyloid formation, Ratio AP:IAPP 4:1 [1]: 42%
- % inhibition of IAPP amyloid formation, Ratio AP:IAPP 10:1 [1]: 65%

Source: US20230048960A1 (University of Washington, published 2023)
